How the values were obtained:
[1] = biological target: MKK7 kinase domain (Homo sapiens) (UniProt O14733); assay: SPR; details: cited from earlier work
[2] = biological target: the molecule itself; assay: SEC-MALS; SEC-LS, Superdex S200 10/30 with miniDAWN TREOS; 0.5-1.0 mg loaded; 20 mM Tris-HCl pH 7.5, 100 mM NaCl, 5 mM DTT, 5% glycerol (the results and the legend name only 5 mM DTT in 20 mM Tris-HCl pH 7.5); oligomeric state of the native protein
[3] = biological target: T1, kinase domain of human MKK7 (mitogen-activated protein kinase kinase 7) (human, UniProt O14733 120-380); assay: BLI; biotinylated GADD45 proteins immobilised on super streptavidin (SSA) biosensors (2.5 nm), Octet RED96; MKK7_KD in solution at 9-300 nM; 0.01 M HEPES pH 7.4, 0.15 M NaCl, 3 mM EDTA, 0.005% Surfactant P20, 2 mM DTT; 1:1 binding model; details: both partners purified
T1 construct: MKK7, human, kinase domain; also called MKK7_KD; source: recombinant, obtained as His-fusion protein as previously reported
T1 sequence (looked up): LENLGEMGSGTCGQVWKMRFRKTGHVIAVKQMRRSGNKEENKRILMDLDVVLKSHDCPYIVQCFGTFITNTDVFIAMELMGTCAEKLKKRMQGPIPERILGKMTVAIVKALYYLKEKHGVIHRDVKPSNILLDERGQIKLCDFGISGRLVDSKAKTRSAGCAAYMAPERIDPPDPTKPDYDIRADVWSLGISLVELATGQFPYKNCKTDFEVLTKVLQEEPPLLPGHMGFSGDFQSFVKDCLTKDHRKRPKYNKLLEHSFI

For GADD45β (from UniProt O75293), the Kd [1] is given as 6 nM.

B1: GADD45γ (growth arrest and DNA damage-inducible 45 gamma) (natural protein, human, UniProt O95257 1-159, looked up)
chain: MTLEEVRGQDTVPESTARMQGAGKALHELLLSAQRQGCLTAGVYESAKVLNVDPDNVTFCVLAAGEEDEGDIALQIHFTLIQAFCCENDIDIVRVGDVQRLAAIVGAGEEAGAPGDLHCILISNPNEDAWKDPALEKLSLFCEESRSVNDWVPSITLPE
modifications: biotin (EZ-Link Sulfo-NHS-LC-Biotinylation Kit), in the BLI experiment only
notes: GADD45γ, human; gene purchased from Sigma Aldrich, cloned into pETM-13 with BamHI and XhoI; Dimeric by SEC-LS; The same construct was used without biotin in SEC-LS and biotinylated in BLI; source: E. coli BL21(DE3), purified (Ni2+-NTA, Superdex 200 SEC)
For B1, the “stoichiometry N” value [2] was 2.

B2: GADD45β (growth arrest and DNA damage-inducible 45 beta) (natural protein, human, UniProt O75293 1-160, looked up)
chain: MTLEELVACDNAAQKMQTVTAAVEELLVAAQRQDRLTVGVYESAKLMNVDPDSVVLCLLAIDEEEEDDIALQIHFTLIQSFCCDNDINIVRVSGMQRLAQLLGEPAETQGTTEARDLHCLLVTNPHTDAWKSHGLVEVASYCEESRGNNQWVPYISLQER
modifications: biotin (EZ-Link Sulfo-NHS-LC-Biotinylation Kit), in the BLI experiment only
notes: GADD45β, human; cloned into pET-28a+ as previously reported; Monomeric by SEC-LS; The same construct was used without biotin in SEC-LS and biotinylated in BLI; also called Human GADD45β; source: E. coli BL21(DE3), purified (Ni2+-NTA, Superdex 200 SEC)
Molecule B2 has a Kd [3] of 2 nM.
